In patent publication US20150299272A1 (UNIVERSITY OF NEWCASTLE UPON TYNE, published 2015):

How the values were obtained:
[1] = biological target: Caf1-6His NT + Spacer linking peptide (Yersinia pestis); assay: co-expression in E. coli, western blot of partly heat-dissociated polymer
[2] = biological target: the molecule itself; assay: Superdex 200 gel filtration (self-association)

B1: Caf1 WT (naturally occurring Caf1 polypeptide monomer from Yersinia pestis; fraction 1 antigen polymer) (other)
chain: ADLTASTTATATLVEPARITLTYKEGAPITIMDNGNIDTELLVGTLTLGGYKTGTTSTSVNFTDAAGDPMYLTFTSQDGNNHQFTTKVIGKDSRDFDISPKVNGENLVGDDVVLATGSQDFFVRSIGSKGGKLAAGKYTDAVTVTVSNQ
Question: Which results are given for B1?
Answer: binding result [1]: binds; binding result [2]: binds
